{"source": "paper PMC10843684", "about": "(Molecular cell, 2023)", "binders": {"B1": {"name": "Ubc8 C85K, insect cell-expressed and phosphorylated (the E2 chain of the Ubc8~ubiquitin mimic) (enzyme, S. cerevisiae)", "chain": "MSSSKRRIETDVMKLLMSDHQVDLINDSMQEFHVKFLGPKDTPYENGVWRLHVELPDNYPYKSPSIGFVNKIFHPNIDIASGSIKLDVINSTWSPLYDLINIVEWMIPGLLKEPNGSDPLNNEAATLQLRDKKLYEEKIKEYIDKYATKEKYQQMFGGDNDSDDSDSGGDLQEEDSDSDEDMDGTGVSSGDDSVDELSEDLSDIDVSDDDDYDEVANQ", "modifications": "heterogeneously phosphorylated C-terminal extension (phosphoserines 202 and 207 modelled); K85 isopeptide-bonded to ubiquitin"}}, "target": "T1, Gid2 (RING subunit of the GID E3 catalytic module) (S. cerevisiae, UniProt Q12508 1-421)", "T1 sequence": "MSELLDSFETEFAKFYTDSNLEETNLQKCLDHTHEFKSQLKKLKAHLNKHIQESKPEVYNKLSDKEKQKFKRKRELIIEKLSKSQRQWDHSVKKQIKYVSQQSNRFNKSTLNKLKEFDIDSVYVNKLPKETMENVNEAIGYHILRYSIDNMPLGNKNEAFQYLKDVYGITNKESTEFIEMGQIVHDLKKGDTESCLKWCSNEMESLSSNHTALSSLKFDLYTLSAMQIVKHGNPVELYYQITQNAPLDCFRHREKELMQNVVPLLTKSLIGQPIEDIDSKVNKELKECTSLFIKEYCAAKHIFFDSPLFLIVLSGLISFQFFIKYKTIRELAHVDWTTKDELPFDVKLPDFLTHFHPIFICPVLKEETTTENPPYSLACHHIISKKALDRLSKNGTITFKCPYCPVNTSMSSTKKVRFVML", "assay": "cryo-EM structure"}
{"binder": "B1", "values": [{"measurement": "binding result", "result": "binds"}]}
